Publication PMC4836274, “Cytokine-Like Factor 1, an Essential Facilitator of Cardiotrophin-Like Cytokine:Ciliary Neurotrophic Factor Receptor α Signaling and sorLA-Mediated Turnover” (Molecular and Cellular Biology, 2016)
One block for each binder: values may come before it.

B2: recombinant soluble ciliary neurotrophic factor receptor α (receptor, human, UniProt P26992 23-342, looked up)
chain: QRHSPQEAPHVQYERLGSDVTLPCGTANWDAAVTWRVNGTDLAPDLLNGSQLVLHGLELGHSGLYACFHRDSWHLRHQVLLHVGLPPREPVLSCRSNTYPKGFYCSWHLPTPTYIPNTFNVTVLHGSKIMVCEKDPALKNRCHIRYMHLFSTIKYKVSISVSNALGHNATAITFDEFTIVKPDPPENVVARPVPSNPRRLEVTWQTPSTWPDPESFPLKFFLRYRPLILDQWQHVELSDGTAHTITDAYAGKEYIIQVAAKDNEIGTWSDWSVAAHATPWTEEPRHLTTEAQAAETTTSTTSSLAPPPTTKICDPGELGS
notes: CNTF receptor α, human, soluble recombinant form; also called sCNTFRα; soluble CNTFRα; source: bought: R&D Systems
B4: cardiotrophin-like cytokine:cytokine-like factor-1 heterodimer (complex, human)
chain 1: LNRTGDPGPGPSIQKTYDLTRYLEHQLRSLAGTYLNYLGPPFNEPDFNPPRLGAETLPRATVDLEVWRSLNDKLRLTQNYEAYSHLLCYLRGLNRQAATAELRRSLAHFCTSLQGLLGSIAGVMAALGYPLPQPLPGTEPTWTPGPAHSDFLQKMDDFWLLKELQTWLWRSAKDFNRLKKKMQPPAAAVTLHLGAHGF
chain 2: AHTAVISPQDPTLLIGSSLLATCSVHGDPPGATAEGLYWTLNGRRLPPELSRVLNASTLALALANLNGSRQRSGDNLVCHARDGSILAGSCLYVGLPPEKPVNISCWSKNMKDLTCRWTPGAHGETFLHTNYSLKYKLRWYGQDNTCEEYHTVGPHSCHIPKDLALFTPYEIWVEATNRLGSARSDVLTLDILDVVTTDPPPDVHVSRVGGLEDQLSVRWVSPPALKDFLFQAKYQIRYRVEDSVDWKVVDDVSNQTSCRLAGLKPGTVYFVQVRCNPFGIYGSKKAGIWSEWSHPTAASTPRSERPGPGGGACEPRGGEPSSGPVRRELKQFLGWLKKHAYCSNLSFRLYDQWRAWMQKSHKTRNQDEGILPSGRRGTARGPAR
notes: cardiotrophin-like cytokine (CLC), human, subunit of the bought recombinant heterodimer; cytokine-like factor-1 (CLF-1; cytokine receptor-like factor 1), human, subunit of the bought recombinant heterodimer; also called CLC:CLF-1; His-tagged CLC:CLF-1; source: bought: R&D Systems (insect cells)

Assays:
[1] = target: B2; experiment: SPR; Biacore 3000, CM5 chip; sCNTFRα immobilised at 66 to 86 fmol/mm^2; 25°C; 10 mM HEPES, 150 mM NaCl, 1.5 mM CaCl2, 1 mM EGTA, 0.005% Tween 20, pH 7.4; Langmuir 1:1 model, global fitting; conditions: both partners purified
sorLA Vps10p-D = target: T1, sorLA Vps10p-D (human); experiment: SPR
T1 chain: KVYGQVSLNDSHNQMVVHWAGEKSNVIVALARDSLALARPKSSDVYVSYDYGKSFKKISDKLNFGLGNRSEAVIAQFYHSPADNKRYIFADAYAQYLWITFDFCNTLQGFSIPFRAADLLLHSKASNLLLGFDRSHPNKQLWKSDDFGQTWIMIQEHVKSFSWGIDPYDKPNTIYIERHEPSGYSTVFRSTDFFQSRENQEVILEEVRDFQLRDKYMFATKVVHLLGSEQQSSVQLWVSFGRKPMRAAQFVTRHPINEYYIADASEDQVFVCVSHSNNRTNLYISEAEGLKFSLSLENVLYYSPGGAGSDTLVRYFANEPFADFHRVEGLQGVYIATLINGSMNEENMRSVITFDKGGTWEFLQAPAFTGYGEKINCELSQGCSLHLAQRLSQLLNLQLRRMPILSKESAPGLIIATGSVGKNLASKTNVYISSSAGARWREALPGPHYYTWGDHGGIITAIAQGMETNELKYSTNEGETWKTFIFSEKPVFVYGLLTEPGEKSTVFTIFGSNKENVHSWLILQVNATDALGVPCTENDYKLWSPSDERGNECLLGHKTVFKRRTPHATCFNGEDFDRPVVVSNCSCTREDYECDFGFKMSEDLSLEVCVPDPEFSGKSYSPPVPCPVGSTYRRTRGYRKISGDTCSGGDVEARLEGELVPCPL

[2] = target: B4; experiment: SPR; Biacore 3000, CM5 chip; sCNTFRα immobilised at 66 to 86 fmol/mm^2; 25°C; 10 mM HEPES, 150 mM NaCl, 1.5 mM CaCl2, 1 mM EGTA, 0.005% Tween 20, pH 7.4; Langmuir 1:1 model, global fitting; conditions: both partners purified
[3] = target: T2, soluble sorLA (entire luminal part of sorLA) (human, UniProt Q92673 82-2137); experiment: SPR; immobilised sorLA preincubated with buffer or with 5 μM inhibitor (sorLA propeptide or RAP) before the ligand was added; conditions: both partners purified
T2 construct: sorLA, human cDNA, the entire luminal (extracellular) part; also called luminal domain of sorLA; ectodomain of sorLA

[4] = target: T2, soluble sorLA (entire luminal part of …); experiment: SPR; Biacore 3000, CM5 chip; soluble sorLA (entire luminal part) immobilised at 66 to 86 fmol/mm^2; 25°C; 10 mM HEPES, 150 mM NaCl, 1.5 mM CaCl2, 1 mM EGTA, 0.005% Tween 20, pH 7.4; Langmuir 1:1 model, global fitting; conditions: both partners purified
[5] = target: T3, recombinant soluble ciliary neurotrophic factor receptor α (human), P26992; experiment: SPR; Biacore 3000, CM5 chip; sCNTFRα immobilised at 66 to 86 fmol/mm^2; 25°C; 10 mM HEPES, 150 mM NaCl, 1.5 mM CaCl2, 1 mM EGTA, 0.005% Tween 20, pH 7.4; Langmuir 1:1 model, global fitting; conditions: remark: other sources report otherwise
T3 chain: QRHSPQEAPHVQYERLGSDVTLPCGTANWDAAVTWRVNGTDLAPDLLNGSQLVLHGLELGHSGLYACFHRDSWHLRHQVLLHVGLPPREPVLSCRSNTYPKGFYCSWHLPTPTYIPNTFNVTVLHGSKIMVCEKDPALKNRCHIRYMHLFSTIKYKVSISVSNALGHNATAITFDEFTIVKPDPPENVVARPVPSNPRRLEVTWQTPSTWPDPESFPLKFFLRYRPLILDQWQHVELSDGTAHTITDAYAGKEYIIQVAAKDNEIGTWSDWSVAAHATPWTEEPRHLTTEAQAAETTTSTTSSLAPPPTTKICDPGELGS

[6] = target: full-length sorLA in transfected HEK293 cells (human, UniProt Q92673 82-2214); experiment: cell-based or functional assay
full-length sorLA in transfected HEK293 cells, sequence (Q92673 82-2214): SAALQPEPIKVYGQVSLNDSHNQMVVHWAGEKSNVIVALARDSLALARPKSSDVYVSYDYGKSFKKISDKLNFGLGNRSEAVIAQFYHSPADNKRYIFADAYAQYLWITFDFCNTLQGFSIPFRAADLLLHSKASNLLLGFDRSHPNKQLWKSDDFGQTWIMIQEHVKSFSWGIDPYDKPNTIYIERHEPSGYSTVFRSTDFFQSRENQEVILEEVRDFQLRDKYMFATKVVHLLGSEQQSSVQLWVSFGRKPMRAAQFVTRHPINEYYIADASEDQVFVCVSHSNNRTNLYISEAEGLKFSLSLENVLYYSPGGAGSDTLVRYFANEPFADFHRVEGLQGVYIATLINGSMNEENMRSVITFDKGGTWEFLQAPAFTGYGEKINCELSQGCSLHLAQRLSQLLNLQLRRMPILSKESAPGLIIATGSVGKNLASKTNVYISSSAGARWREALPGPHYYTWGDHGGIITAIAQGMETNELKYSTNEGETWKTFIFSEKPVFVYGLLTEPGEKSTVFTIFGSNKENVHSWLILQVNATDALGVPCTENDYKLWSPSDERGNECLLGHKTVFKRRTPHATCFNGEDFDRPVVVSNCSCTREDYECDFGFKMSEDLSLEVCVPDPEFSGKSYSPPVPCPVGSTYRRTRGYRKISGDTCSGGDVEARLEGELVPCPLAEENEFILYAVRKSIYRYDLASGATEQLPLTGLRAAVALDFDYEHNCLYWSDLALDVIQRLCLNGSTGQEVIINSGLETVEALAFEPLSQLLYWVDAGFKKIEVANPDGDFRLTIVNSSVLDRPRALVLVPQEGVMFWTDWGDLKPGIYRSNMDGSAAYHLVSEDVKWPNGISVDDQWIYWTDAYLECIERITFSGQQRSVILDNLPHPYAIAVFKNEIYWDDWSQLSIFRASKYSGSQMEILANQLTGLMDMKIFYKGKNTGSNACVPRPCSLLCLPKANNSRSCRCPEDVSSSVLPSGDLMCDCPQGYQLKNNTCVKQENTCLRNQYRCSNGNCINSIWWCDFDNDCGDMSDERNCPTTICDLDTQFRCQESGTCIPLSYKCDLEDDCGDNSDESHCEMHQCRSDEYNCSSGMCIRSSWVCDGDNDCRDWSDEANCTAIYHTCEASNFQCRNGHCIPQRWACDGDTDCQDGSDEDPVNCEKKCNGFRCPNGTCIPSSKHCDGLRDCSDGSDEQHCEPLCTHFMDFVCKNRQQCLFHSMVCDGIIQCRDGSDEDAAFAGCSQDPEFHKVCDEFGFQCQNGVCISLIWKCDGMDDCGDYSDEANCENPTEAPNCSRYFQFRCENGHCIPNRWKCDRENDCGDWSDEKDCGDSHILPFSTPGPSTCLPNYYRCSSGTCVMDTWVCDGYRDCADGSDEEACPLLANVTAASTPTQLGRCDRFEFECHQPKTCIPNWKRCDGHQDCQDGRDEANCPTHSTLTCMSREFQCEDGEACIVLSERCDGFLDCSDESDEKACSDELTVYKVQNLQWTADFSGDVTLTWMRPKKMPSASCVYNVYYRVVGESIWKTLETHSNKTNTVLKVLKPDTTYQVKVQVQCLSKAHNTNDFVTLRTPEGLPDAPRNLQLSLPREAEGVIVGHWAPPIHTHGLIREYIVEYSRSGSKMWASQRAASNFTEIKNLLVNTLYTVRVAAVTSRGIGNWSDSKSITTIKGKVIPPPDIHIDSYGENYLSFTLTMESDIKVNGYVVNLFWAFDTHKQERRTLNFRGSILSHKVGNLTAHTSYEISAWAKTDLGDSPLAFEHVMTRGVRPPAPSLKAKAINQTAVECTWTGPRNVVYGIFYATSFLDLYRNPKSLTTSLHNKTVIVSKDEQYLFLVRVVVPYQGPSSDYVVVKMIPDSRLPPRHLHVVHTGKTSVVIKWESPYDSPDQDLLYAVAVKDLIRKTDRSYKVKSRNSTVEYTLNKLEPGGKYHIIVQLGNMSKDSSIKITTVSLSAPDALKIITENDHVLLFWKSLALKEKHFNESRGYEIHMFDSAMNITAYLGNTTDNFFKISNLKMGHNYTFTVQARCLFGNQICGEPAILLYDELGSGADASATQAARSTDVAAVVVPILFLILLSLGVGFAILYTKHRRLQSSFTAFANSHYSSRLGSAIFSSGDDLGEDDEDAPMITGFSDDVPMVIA

T2 sequence (Q92673 82-2137): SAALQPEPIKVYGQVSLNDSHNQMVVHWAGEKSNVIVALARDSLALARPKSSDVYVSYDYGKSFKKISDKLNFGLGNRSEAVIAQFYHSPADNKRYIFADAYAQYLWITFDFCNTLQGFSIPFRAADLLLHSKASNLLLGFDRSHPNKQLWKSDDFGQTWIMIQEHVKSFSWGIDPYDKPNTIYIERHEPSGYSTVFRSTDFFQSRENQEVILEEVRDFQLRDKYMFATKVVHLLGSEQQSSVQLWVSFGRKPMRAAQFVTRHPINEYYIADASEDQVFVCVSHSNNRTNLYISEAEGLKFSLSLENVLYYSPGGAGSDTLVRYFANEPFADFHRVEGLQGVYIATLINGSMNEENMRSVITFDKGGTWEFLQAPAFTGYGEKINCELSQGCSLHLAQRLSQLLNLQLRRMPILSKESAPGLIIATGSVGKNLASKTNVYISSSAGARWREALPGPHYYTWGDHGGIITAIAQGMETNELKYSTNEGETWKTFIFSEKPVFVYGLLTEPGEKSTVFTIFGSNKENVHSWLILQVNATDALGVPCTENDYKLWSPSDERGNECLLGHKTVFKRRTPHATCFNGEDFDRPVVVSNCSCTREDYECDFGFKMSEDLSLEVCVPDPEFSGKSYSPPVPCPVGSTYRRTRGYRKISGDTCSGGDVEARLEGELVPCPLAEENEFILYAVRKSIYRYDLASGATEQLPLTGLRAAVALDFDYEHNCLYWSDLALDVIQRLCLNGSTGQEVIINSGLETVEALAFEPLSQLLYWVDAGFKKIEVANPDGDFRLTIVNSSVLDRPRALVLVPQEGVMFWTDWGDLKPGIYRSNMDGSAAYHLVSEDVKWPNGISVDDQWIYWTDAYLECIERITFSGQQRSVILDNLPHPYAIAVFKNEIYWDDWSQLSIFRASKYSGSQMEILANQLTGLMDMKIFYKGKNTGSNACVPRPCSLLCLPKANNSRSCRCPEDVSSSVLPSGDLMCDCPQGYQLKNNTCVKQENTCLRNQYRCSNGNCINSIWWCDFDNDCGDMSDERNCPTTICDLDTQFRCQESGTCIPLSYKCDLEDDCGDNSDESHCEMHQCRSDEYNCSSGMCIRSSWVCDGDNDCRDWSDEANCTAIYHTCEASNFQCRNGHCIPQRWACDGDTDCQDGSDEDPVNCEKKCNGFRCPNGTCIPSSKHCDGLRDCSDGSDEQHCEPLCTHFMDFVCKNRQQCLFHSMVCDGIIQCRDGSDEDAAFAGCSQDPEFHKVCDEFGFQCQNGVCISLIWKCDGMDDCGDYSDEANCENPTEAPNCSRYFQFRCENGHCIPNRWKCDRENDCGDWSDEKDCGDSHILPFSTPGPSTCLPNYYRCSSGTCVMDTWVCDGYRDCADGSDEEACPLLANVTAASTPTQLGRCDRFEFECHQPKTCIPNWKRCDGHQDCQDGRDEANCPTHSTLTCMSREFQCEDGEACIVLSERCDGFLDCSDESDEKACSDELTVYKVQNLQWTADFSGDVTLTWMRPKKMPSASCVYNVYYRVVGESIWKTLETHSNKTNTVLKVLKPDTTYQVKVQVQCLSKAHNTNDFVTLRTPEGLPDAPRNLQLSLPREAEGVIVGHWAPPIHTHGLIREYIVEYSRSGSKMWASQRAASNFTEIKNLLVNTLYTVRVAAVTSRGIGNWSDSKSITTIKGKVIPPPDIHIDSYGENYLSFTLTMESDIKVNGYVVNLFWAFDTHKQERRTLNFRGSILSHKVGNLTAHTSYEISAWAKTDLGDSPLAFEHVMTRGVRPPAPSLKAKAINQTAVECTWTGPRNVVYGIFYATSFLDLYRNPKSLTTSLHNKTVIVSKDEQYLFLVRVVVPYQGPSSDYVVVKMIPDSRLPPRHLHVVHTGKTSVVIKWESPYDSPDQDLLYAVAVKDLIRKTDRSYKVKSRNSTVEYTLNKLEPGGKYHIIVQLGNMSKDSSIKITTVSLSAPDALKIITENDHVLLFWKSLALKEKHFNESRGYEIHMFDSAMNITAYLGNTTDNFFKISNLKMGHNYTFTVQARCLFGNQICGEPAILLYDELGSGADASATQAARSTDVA

Binder: B2
- Kd (sorLA Vps10p-D): ~14 nM
- Kd [2]: 0.3 nM
- binding result [3]: binds

Binder: B4
- Kd [4]: 5 nM
- pSTAT3 in CNTFRα-deficient Ba/F3 cells (gp130/LIFRβ) stimulated with CLC:CLF-1 and sCNTFRα, sorLA transfectants against untransfected cells [6]: ~4 fold

Second part, the binder after the results:

- Kd [1]: 66 nM
B1: cardiotrophin-like cytokine (ligand, human, UniProt Q9UBD9 28-225, looked up)
chain: LNRTGDPGPGPSIQKTYDLTRYLEHQLRSLAGTYLNYLGPPFNEPDFNPPRLGAETLPRATVDLEVWRSLNDKLRLTQNYEAYSHLLCYLRGLNRQAATAELRRSLAHFCTSLQGLLGSIAGVMAALGYPLPQPLPGTEPTWTPGPAHSDFLQKMDDFWLLKELQTWLWRSAKDFNRLKKKMQPPAAAVTLHLGAHGF
notes: cardiotrophin-like cytokine (CLC), human recombinant; also called CLC; source: bought: R&D Systems (bacteria)

- Kd [4]: 4 nM
- Kd [5]: 4 nM
B3: CLF-1–His (His-tagged cytokine-like factor-1) (natural protein, human, UniProt O75462 38-422, looked up)
chain: AHTAVISPQDPTLLIGSSLLATCSVHGDPPGATAEGLYWTLNGRRLPPELSRVLNASTLALALANLNGSRQRSGDNLVCHARDGSILAGSCLYVGLPPEKPVNISCWSKNMKDLTCRWTPGAHGETFLHTNYSLKYKLRWYGQDNTCEEYHTVGPHSCHIPKDLALFTPYEIWVEATNRLGSARSDVLTLDILDVVTTDPPPDVHVSRVGGLEDQLSVRWVSPPALKDFLFQAKYQIRYRVEDSVDWKVVDDVSNQTSCRLAGLKPGTVYFVQVRCNPFGIYGSKKAGIWSEWSHPTAASTPRSERPGPGGGACEPRGGEPSSGPVRRELKQFLGWLKKHAYCSNLSFRLYDQWRAWMQKSHKTRNQDEGILPSGRRGTARGPAR
notes: signal peptide in the construct; human CLF-1 coding cDNA (ImaGenes) amplified from the start codon to the C terminus, secreted into the medium; The second codon of the forward primer reads GCC (Ala); this lies in the signal peptide; The introduction gives 385 amino acids for human CLF-1; also called His-tagged CLF-1; source: HEK293 cells transfected, purified from serum-free medium (Talon resin) …
